Test results from PMC9720954, “Blood–brain barrier penetrating neprilysin degrades monomeric amyloid-beta in a mouse model of Alzheimer’s disease” (Alzheimer's Research & Therapy, 2022).

How the values were obtained:
Aβ1-40 monomers = target: T1, Aβ1-40 monomers (Homo sapiens (synthetic peptide; …, UniProt P05067); assay: ELISA; sandwich ELISA; 1 nM Aβ1-40 monomers or 1 nM Aβ1-42 aggregates held by coated rabbit polyclonal antibodies (C-terminal of Aβ, or Aβ1-42); serial dilutions of the recombinant proteins in 0.1% BSA, 0.05% Tween-20 in PBS, 2 h at RT; goat anti-mouse HRP; details: both partners purified
T1 construct: amyloid-beta 1-40, cut product of the amyloid precursor protein (APP); numbers count on: the Aβ peptide; Used as monomers, held on the plate by a rabbit polyclonal antibody against the C-terminus of Aβ; also called Aβ40; wt-Aβ1-40; source: bought: Innovagen
T1 sequence (P05067 672-711): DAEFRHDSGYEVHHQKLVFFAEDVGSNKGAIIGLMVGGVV

Aβ1-42 aggregates = target: T2, Aβ1-42 aggregates (Homo sapiens (synthetic peptide; …, UniProt P05067); assay: as above; details: both partners purified
T2 construct: amyloid-beta 1-42, cut product of the amyloid precursor protein (APP); numbers count on: the Aβ peptide; Soluble aggregates; also called Aβ42; Aβ1-42 soluble aggregates; source: aggregates prepared as previously described [50]
T2 sequence (P05067 672-713): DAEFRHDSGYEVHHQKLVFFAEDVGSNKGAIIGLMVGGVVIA

binding result (Aβ1-40 monomers): no binding | binding result (Aβ1-42 aggregates): no binding
B1: scFc-scFv8D3 (scFv, V domains shown)
VH: EVQLVESGGGLVQPGNSLTLSCVASGFTFSNYGMHWIRQAPKKGLEWIAMIYYDSSKMNYADTVKGRFTISRDNSKNTLYLEMNSLRSEDTAMYYCAVPTSHYVVDVWGQGVSVTVSS
VL: DIQMTQSPASLSASLEEIVTITCQASQDIGNWLAWYQQKPGKSPQLLIYGATSLADGVPSRFSGSRSGTQFSLKISRVQVEDIGIYYCLQAYNTPWTFGGGTKLELK
notes: first variable domain of scFv8D3, as in m1; (G4S)3 linker between the two parts of scFv8D3, written out from the printed formula; second variable domain of scFv8D3, as in m1; in-house linker between scFv8D3 and scFc; Lacks NEP; the control of the study; the signal peptide is cleaved on expression; Mw 81 kDa; also called scFv8D3-scFc; source: Expi293 cells, transfected (pcDNA3.4), purified …
